Source: US20100197768A1 (UNIVERSITY OF ROCHESTER, published 2010)

B1: N1/2 (CD1-NCD1, a.a. 1-208 of hA3G) (other, human, UniProt Q9HC16 1-208, looked up)
chain: MKPHFRNTVERMYRDTFSYNFYNRPILSRRNTVWLCYEVKTKGPSRPPLDAKIFRGQVYSELKYHPEMRFFHWFSKWRKLHRDQEYEVTWYISWSPCTKCTRDMATFLAEDPKVTLTIFVARLYYFWDPDYQEALRSLCQKRDGPRATMKIMNYDEFQHCWSKFVYSQRELFEPWNNLPKYYILLHIMLGEILRHSMDPPTFTFNFNN
notes: range 1-208; Expressed in 293T cells; tested in RNase A treated cell extracts; also called N-terminal half of hA3G; not shown: N-terminal tag HA, V5, EGFP-HA or EGFP-V5, differing by experiment
B2: CD1 (catalytic domain 1, a.a. 1-143 of hA3G) (other, human, UniProt Q9HC16 1-143, looked up, not shown: small tags and cut ends)
chain: MKPHFRNTVERMYRDTFSYNFYNRPILSRRNTVWLCYEVKTKGPSRPPLDAKIFRGQVYSELKYHPEMRFFHWFSKWRKLHRDQEYEVTWYISWSPCTKCTRDMATFLAEDPKVTLTIFVARLYYFWDPDYQEALRSLCQKRD
notes: range 1-143; also called N-terminal catalytic domain
B3: NCD1 (non-catalytic domain 1, a.a. 144-208 of hA3G) (other, human, UniProt Q9HC16 144-208, looked up)
chain: GPRATMKIMNYDEFQHCWSKFVYSQRELFEPWNNLPKYYILLHIMLGEILRHSMDPPTFTFNFNN
notes: range 144-208; not shown: N-terminal tag HA, V5, EGFP-HA or EGFP-V5, differing by experiment

Key:
[1] = biological target: T1, Protein A (agarose beads, no antibody) (UniProt P38507 37-477); assay: IP with Protein A beads alone
T1 construct: Bead-only control of the immunoprecipitations; also called Protein A beads
Experimental: (§1) Twenty-four hours after transfection the cells were harvested and cell extracts were analyzed by co-immunoprecipitation (co-IP). Extracts were treated with RNase A prior to IP to eliminate interactions that were due to RNA bridging.
(§2) Co-immunoprecipitation analysis. […] 24 hours after transfection cell extracts were harvested in NP-40 lysis buffer (50 mM Tris pH 7.4, 150 mM NaCl, 0.1% NP-40) with Complete® Mini EDTA free protease inhibitors (Roche). Cell extracts were treated with 40 μg/mL of RNase A for 1 hour at 37° C. and subsequently pre-cleared with Protein A agarose beads (Roche) tumbling for 1 hour at 4° C. The pre-cleared extracts were split and added to a Protein A bead slurry±V5 (Invitrogen) or GFP antibody (Clontech) for immunoprecipitation by tumbling overnight at 4° C. The beads were washed 3 times with NP-40 lysis buffer and eluted 3 times with 1×Treat (50 mM Tris pH 7.4, 10 mM DTT, 0.1% SDS).

[2] = biological target: the molecule itself; assay: summary of the co-IP results of Example 2
Experimental: as §1, §2

[3] = biological target: B2; assay: co-IP of HA and V5 tagged domains, V5 IP, HA western
Experimental: as §1, §2

[4] = biological target: T2, HIV-1 p55 Gag polyprotein (HIV-1, UniProt P12493 2-500); assay: V5 IP of hA3G domain, p24 western for Gag, RNase A treated 293T extracts
T2 construct: Expressed in 293T cells co-transfected with HIV-1 DNA; detected with a p24 antibody
Experimental: Co-IP experiments were performed using various hA3G domains and Gag or Vif following RNase A digestion of cell extracts.
as §2

[5] = biological target: the molecule itself; assay: co-IP of HA and V5 tagged forms, V5 IP, HA western, RNase A treated 293T extracts
Experimental: as §1, §2

[6] = biological target: B1; assay: co-IP of HA and V5 tagged domains, V5 IP, HA western
Experimental: as §1, §2

[7] = biological target: T3, EGFP-HA tagged Vif (HIV-1, UniProt P12504 1-192); assay: GFP antibody IP of EGFP-HA-Vif, western for the hA3G domain, RNase A treated 293T extracts
T3 construct: Expressed in 293T cells from pIRES-P; also called EGFP-HA-Vif; HIV-1 Vif; not shown: N-terminal EGFP-HA tag

[8] = biological target: the molecule itself; assay: co-IP of HA and V5 tagged forms, V5 IP, HA western
Experimental: as §1, §2

[9] = biological target: B3; assay: co-IP of HA and V5 tagged domains, V5 IP, HA western
Experimental: as §1, §2

T3 sequence (P12504 whole entry, the tested form may be a part): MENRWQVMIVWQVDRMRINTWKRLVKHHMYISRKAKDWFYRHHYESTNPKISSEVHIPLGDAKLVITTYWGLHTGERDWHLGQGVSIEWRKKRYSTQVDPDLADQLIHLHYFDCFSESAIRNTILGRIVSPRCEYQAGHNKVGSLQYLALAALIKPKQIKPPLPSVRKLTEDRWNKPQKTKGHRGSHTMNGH

Binder | binding result [1] | binding result [4] | binding result [8] | other results
CD2 (catalytic domain 2, a.a. 209-336 of hA3G) (other, human, UniProt Q9HC16 209-336, looked up, also called C-terminal catalytic domain; not shown: N-terminal tag HA, V5, EGFP-HA or EGFP-V5, differing by experiment) EPWVRGRHETYLCYEVERMHNDTWVLLNQRRGFLCNQAPHKHGFLEGRHAELCFLDVIPFWKLDLDQDYRVTCFTSWSPCFSCAQEMAKFISKNKHVSLCIFTARIYDDQGRCQEGLRTLAEAGAKIS | no binding | no binding | – | binding result [2]: binds; binding result [3]: no binding
C3/4 (larger C-terminal domain lacking only CD1, a.a. 144-384 of hA3G) (other, human, UniProt Q9HC16 144-384, looked up, range 144-384; not shown: N-terminal tag HA, V5, EGFP-HA or EGFP-V5, differing by experiment) GPRATMKIMNYDEFQHCWSKFVYSQRELFEPWNNLPKYYILLHIMLGEILRHSMDPPTFTFNFNNEPWVRGRHETYLCYEVERMHNDTWVLLNQRRGFLCNQAPHKHGFLEGRHAELCFLDVIPFWKLDLDQDYRVTCFTSWSPCFSCAQEMAKFISKNKHVSLCIFTARIYDDQGRCQEGLRTLAEAGAKISIMTYSEFKHCWDTFVDHQGCPFQPWDGLDEHSQDLSGRLRAILQNQEN | no binding | – | – | binding result [5]: binds
C1/2 (CD2-NCD2, a.a. 209-384 of hA3G) (other, human, UniProt Q9HC16 209-384, looked up, Self co-IP was done with and without EGFP (±EGFP); also called C-terminal half of hA3G; not shown: N-terminal tag HA, V5, EGFP-HA or EGFP-V5, differing by experiment) EPWVRGRHETYLCYEVERMHNDTWVLLNQRRGFLCNQAPHKHGFLEGRHAELCFLDVIPFWKLDLDQDYRVTCFTSWSPCFSCAQEMAKFISKNKHVSLCIFTARIYDDQGRCQEGLRTLAEAGAKISIMTYSEFKHCWDTFVDHQGCPFQPWDGLDEHSQDLSGRLRAILQNQEN | no binding | no binding | – | binding result [6]: no binding; binding result [5]: binds; binding result [7]: no binding
B1 | no binding | – | no binding | –
B2 | no binding | no binding | no binding | –
B3 | no binding | – | no binding | –
IMTYSEFKHCWDTFVDHQGCPFQPWDGLDEHSQDLSGRLRAILQNQEN (other, human, UniProt Q9HC16 337-384, looked up, range 337-384; not shown: N-terminal tag HA, V5, EGFP-HA or EGFP-V5, differing by experiment) [NCD2 (non-catalytic domain 2, a.a. 337-384 of hA3G)] | no binding | – | no binding | binding result [9]: no binding
